Results published in patent publication US20250382344A1, “Soluble GLP1/GIP/NPY2 Receptor Triple Agonists” (Boehringer Ingelheim International GmH, priority 2024, published 2025).
Substitutions are numbered along the chain they refer to. *1 amine or outer side, *2 acyl side, *3 side chain or, on linkers, in order; H or OH if unused. Where no end group is shown, it is not given here. Side-chain parts run from the residue outwards. [ ]: non-standard residue; d: D form. The star is where a group is joined. C20 diacid = O=C(O)CCCCCCCCCCCCCCCCCCC(=O)*; C18 diacid = O=C(O)CCCCCCCCCCCCCCCCC(=O)*; γGlu = O=C(O)[C@H](CCC(=O)[*:2])N[*:1]; εLys = N[C@@H](CCCCN[*:1])C(=O)[*:2]; Aib = CC(C)(N)C(=O)O

T1: human neuropeptide Y2 receptor (human, UniProt P49146 1-381)
T1 sequence (looked up): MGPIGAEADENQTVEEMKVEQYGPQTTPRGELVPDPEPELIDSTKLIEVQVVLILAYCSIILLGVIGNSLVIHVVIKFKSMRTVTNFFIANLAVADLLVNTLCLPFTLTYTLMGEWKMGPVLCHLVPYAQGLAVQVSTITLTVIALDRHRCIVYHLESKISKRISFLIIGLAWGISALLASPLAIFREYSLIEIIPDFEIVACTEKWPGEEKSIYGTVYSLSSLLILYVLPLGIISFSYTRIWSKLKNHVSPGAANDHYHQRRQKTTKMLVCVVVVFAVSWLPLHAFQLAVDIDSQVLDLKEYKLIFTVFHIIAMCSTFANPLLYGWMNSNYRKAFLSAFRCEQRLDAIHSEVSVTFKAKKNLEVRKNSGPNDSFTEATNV

T2: human GIP receptor (human, UniProt P48546 22-466)
T2 sequence (looked up): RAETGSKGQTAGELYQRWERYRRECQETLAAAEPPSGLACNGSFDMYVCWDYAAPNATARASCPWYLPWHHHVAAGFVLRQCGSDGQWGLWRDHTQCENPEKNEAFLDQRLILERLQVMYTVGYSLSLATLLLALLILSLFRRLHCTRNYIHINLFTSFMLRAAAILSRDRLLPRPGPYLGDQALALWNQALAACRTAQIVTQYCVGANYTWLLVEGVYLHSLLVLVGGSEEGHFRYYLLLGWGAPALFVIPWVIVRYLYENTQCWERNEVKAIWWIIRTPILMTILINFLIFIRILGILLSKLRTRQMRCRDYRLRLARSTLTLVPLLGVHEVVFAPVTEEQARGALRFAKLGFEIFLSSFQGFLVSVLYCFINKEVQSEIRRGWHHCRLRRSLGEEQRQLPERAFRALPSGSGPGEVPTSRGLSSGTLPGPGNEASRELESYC

B1: Compound 21 (peptide)
peptide: YXEGTFTSDLSIXLEKQAQXAFIRHLINKXTRQRY
modifications: Aib at 2, 13, 20, 30; Lys29 epsilon-amino acylated with C20DA-gGlu-gGlu-gGlu-gGlu-gGlu-gGlu-eLys; C-terminal amide
B2: Compound 67 (peptide)
peptide: B1 peptide with L10Y, E15D, I23V
modifications: Aib at 2, 20, 30; aMeL at 13; Lys29 epsilon-amino acylated with C18DA-gGlu-gGlu-gGlu-gGlu-gGlu-gGlu-eLys; C-terminal amide
B3: Compound 68 (peptide)
peptide: B1 peptide with L10Y, I23V, N28A
modifications: Aib at 2, 13, 20, 30; Lys29 epsilon-amino acylated with C18DA-gGlu-gGlu-gGlu-gGlu-gGlu-gGlu-eLys; C-terminal amide
B4: Compound 81 (peptide)
peptide: B1 peptide with L10Y, E15D
modifications: Aib at 2, 13, 20, 30; Lys29 epsilon-amino acylated with C20DA-gGlu-gGlu-gGlu-gGlu-gGlu-gGlu-eLys; C-terminal amide
B5: Compound 36 (peptide)
peptide: B1 peptide with L10Y, A18E, I23V
modifications: Aib at 2, 13, 20, 30; Lys29 epsilon-amino acylated with C18DA-gGlu-gGlu-gGlu-gGlu-gGlu-gGlu-eLys; C-terminal amide
B6: Compound 37 (peptide)
peptide: B1 peptide with L10Y, I23L
modifications: Aib at 2, 13, 20, 30; Lys29 epsilon-amino acylated with C18DA-gGlu-gGlu-gGlu-gGlu-gGlu-gGlu-eLys; C-terminal amide
B7: Compound 42 (peptide)
peptide: B1 peptide with L10Y, K16Q, I23V
modifications: Aib at 2, 13, 20, 30; Lys29 epsilon-amino acylated with C18DA-gGlu-gGlu-gGlu-gGlu-gGlu; C-terminal amide
B8: Compound 22 (peptide)
peptide: B1 peptide with L10Y, E15D
modifications: Aib at 2, 20, 30; aMeL at 13; Lys29 epsilon-amino acylated with C20DA-gGlu-gGlu-gGlu-gGlu-gGlu-gGlu-eLys; C-terminal amide
B9: Compound 28 (peptide)
peptide: B1 peptide with L10Y, Q17E, I23V
modifications: Aib at 2, 13, 20, 30; Lys29 epsilon-amino acylated with C20DA-gGlu-gGlu-gGlu-gGlu-gGlu-gGlu-eLys; C-terminal amide
B10: Compound 33 (peptide)
peptide: B1 peptide with L10Y, E15D, Q17I, I23V
modifications: Aib at 2, 13, 20, 30; Lys29 epsilon-amino acylated with C18DA-gGlu-gGlu-gGlu-gGlu-gGlu-gGlu-eLys; C-terminal amide
B11: Compound 74 (peptide)
peptide: B1 peptide with L10Y, E15D, I23V
modifications: Aib at 2, 13, 20, 30; Lys29 epsilon-amino acylated with C20DA-gGlu-gGlu-gGlu-gGlu-gGlu-gGlu-eLys; C-terminal amide
B12: Compound 27 (peptide)
peptide: B1 peptide with L10Y, I23V, X30L
modifications: Aib at 2, 13, 20; Lys29 epsilon-amino acylated with C20DA-gGlu-gGlu-gGlu-gGlu-gGlu-gGlu-eLys; C-terminal amide
B13: Compound 54 (peptide)
peptide: B1 peptide with T5E, L10Y, I23V
modifications: Aib at 2, 13, 20, 30; Lys29 epsilon-amino acylated with C18DA-gGlu-gGlu-gGlu-gGlu-gGlu-gGlu-eLys; C-terminal amide
B14: Compound 45 (peptide)
peptide: B1 peptide with L10Y, A21E, I23V, X30L
modifications: Aib at 2, 13, 20; Lys29 epsilon-amino acylated with C18DA-gGlu-gGlu-gGlu-gGlu-gGlu-AHX; C-terminal amide
B15: Compound 7 (peptide)
peptide: B1 peptide with L10Y, I23V, X30L
modifications: Aib at 2, 13, 20; Lys29 epsilon-amino acylated with C18DA-gGlu-gGlu-gGlu-gGlu-gGlu-OEG; C-terminal amide
B16: Compound 85 (peptide)
peptide: B1 peptide with T5A, L10Y, I23V
modifications: Aib at 2, 13, 20, 30; Lys29 epsilon-amino acylated with C18DA-gGlu-gGlu-gGlu-gGlu-gGlu-gGlu-eLys; C-terminal amide
B17: Compound 41 (peptide)
peptide: B1 peptide with L10Y, I23V, X30I
modifications: Aib at 2, 13, 20; Lys29 epsilon-amino acylated with C18DA-gGlu-gGlu-gGlu-gGlu-gGlu; C-terminal amide

Assays:
Test in all cases: cell-based or functional assay
human GLP-1 receptor = human GLP-1 receptor (human, UniProt P43220 24-463)
[1] = target: T1, human neuropeptide Y2 receptor
human GIP receptor = target: T2, human GIP receptor

Row | Binder | EC50, CreLuc reporter, 0.5% hP (human GLP-1 receptor) | EC50, CreLuc reporter, 100% hP (human GLP-1 receptor) | EC50, CreLuc reporter, 0.5% hP [1] | EC50, CreLuc reporter, 100% hP [1] | EC50, CreLuc reporter, 0.5% hP (human GIP receptor) | EC50, CreLuc reporter, 100% hP (human GIP receptor)
1 | Y[Aib]EGTFTSDYSIALEKQAQ[Aib]AFVRHLINK([γGlu-γGlu-γGlu-γGlu-γGlu-γGlu-C20 diacid])[Aib]TRQRY-NH2 [Compound 29] | 5.5 nM | 33 nM | 41.3 nM | 180 nM | – | –
2 | Y[Aib]EGTFTSDYSI[Aib]LEKQAQ[Aib]AFVRHLINK([γGlu-γGlu-εLys-γGlu-γGlu-γGlu-γGlu-C20 diacid])[Aib]TRQRY-NH2 [Compound 52] | 3.3 nM | – | – | 152 nM | – | –
3 | Y[Aib]EGTFTSDYSI[Aib]LEKQAQ[Aib]AFVRHLINK([γGlu-γGlu-γGlu-γGlu-γGlu-γGlu-C20 diacid])[Aib]TRQRY-NH2 [Compound 3] | 3 nM | 13.9 nM | 37.9 nM | 147 nM | 0.7 nM | –
4 | Y[Aib]EGTFTSDYSI[Aib]LEEQAQ[Aib]AFVRHLINK([εLys-γGlu-γGlu-γGlu-γGlu-γGlu-C18 diacid])[Aib]TRQRY-NH2 [Compound 48] | 0.5 nM | – | 11.6 nM | 77.2 nM | – | –
5 | Y[Aib]EGTFTSDLSI[Aib]LEKQAQ[Aib]AFVRHLINK([γGlu-γGlu-γGlu-γGlu-γGlu-γGlu-C20 diacid])[Aib]TRQRY-NH2 [Compound 51] | 4.5 nM | 16.3 nM | – | – | 0.5 nM | 13.8 nM
6 | Y[Aib]EGTFTSDYSI[Aib]LEKQAQ[Aib]AFVRHLINK([γDab-γGlu-γGlu-γGlu-γGlu-γGlu-γGlu-C20 diacid])[Aib]TRQRY-NH2 [Compound 46] | – | 5.3 nM | 28.4 nM | 70.5 nM | 0.8 nM | 7.2 nM
7 | Y[Aib]EGTFTSDYSI[Aib]LDQQAQ[Aib]AFVRHLINK([εLys-γGlu-γGlu-γGlu-γGlu-γGlu-C18 diacid])[Aib]TRQRY-NH2 [Compound 70] | 0.2 nM | – | 12.8 nM | 119 nM | – | –
8 | Y[Aib]EGTFTSDYSI[Aib]LEKQAQ[Aib]EFVRHLINK([γGlu-γGlu-γGlu-γGlu-γGlu-γGlu-C18 diacid])[Aib]TRQRY-NH2 [Compound 56] | – | 7.1 nM | – | – | 0.4 nM | 19.3 nM
9 | Y[Aib]EGTFTSDYSI[Aib]LEEEAQ[Aib]AFVRHLINK([γGlu-γGlu-γGlu-γGlu-C18 diacid])[Aib]TRQRY-NH2 [Compound 25] | 0.7 nM | 2 nM | 89.2 nM | 437 nM | – | –
10 | B1 | 4.8 nM | 13.9 nM | 6.5 nM | 111 nM | 0.2 nM | 5.6 nM
11 | B2 | 0.1 nM | 0.6 nM | 18.1 nM | 112 nM | 0.1 nM | 1.7 nM
12 | B3 | 0.6 nM | 3.3 nM | 150 nM | 690 nM | 0.2 nM | 3 nM
13 | B4 | 0.6 nM | 3.8 nM | 7.2 nM | 52.4 nM | 0.5 nM | –
14 | B5 | – | 16.9 nM | 30.1 nM | 95.2 nM | 8.8 nM | 41.4 nM
15 | B6 | 5.8 nM | 9.1 nM | 11.9 nM | 41.3 nM | – | 15.5 nM
16 | B7 | 0.9 nM | 14.5 nM | 81.4 nM | 704 nM | – | –
17 | B8 | 0.2 nM | 0.6 nM | 8.8 nM | 72 nM | 0.1 nM | –
18 | B9 | 8 nM | 14.8 nM | 24 nM | 297 nM | 19.3 nM | 208 nM
19 | B10 | 0.1 nM | 1 nM | – | – | 0.7 nM | 18.7 nM
20 | B11 | 0.4 nM | 3.3 nM | 7.1 nM | 90.6 nM | 0.5 nM | –
21 | B12 | – | 20.8 nM | – | 69.1 nM | 0.6 nM | 16.3 nM
22 | B13 | 3.4 nM | 14.4 nM | – | 38.3 nM | – | –
23 | B14 | 0.5 nM | – | 19.8 nM | 224 nM | 0.3 nM | 19.6 nM
24 | B15 | – | 7.9 nM | 12.4 nM | 80.6 nM | – | –
25 | B16 | 10.4 nM | 14.5 nM | – | 16.2 nM | – | –
26 | B17 | 0.9 nM | 5 nM | 49.2 nM | 71.3 nM | 0.3 nM | 7.1 nM
27 | Y[Aib]EGTFTSDYSI[Aib]LEKQAQ[Aib]AFVRHLINK([εLys-γGlu-γGlu-γGlu-γGlu-γGlu-C20 diacid])[Aib]TRQRY-NH2 [Compound 59] | – | 16.7 nM | 5.7 nM | – | – | –
